We go through 21 molecules from paper PMC10397247.

Like-named read-outs stand apart in the source and are kept apart here.

One assay deals with T1, 4H930-AA.
T1 chain: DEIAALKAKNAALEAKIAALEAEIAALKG
Nature of the assay: two-hybrid library CCmax.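 Further: natural log of median RNA to DNA barcode read ratio; higher means stronger binding.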

The target in the next assay is T2, 4H909-AA.
T2 chain: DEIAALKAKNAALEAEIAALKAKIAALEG
In words: two-hybrid library CCmax.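 Further: natural log of median RNA to DNA barcode read ratio; higher means stronger binding.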

In a further assay the target is T3, 4H94-AA.
T3 chain: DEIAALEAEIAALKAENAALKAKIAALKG
Nature of the assay: two-hybrid library CCmax.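 Further: natural log of median RNA to DNA barcode read ratio; higher means stronger binding.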

The next assay addresses T4, 4H780-AA.
T4 chain: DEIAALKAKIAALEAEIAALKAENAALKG
Nature of the assay: two-hybrid library CCmax.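 Further: natural log of median RNA to DNA barcode read ratio; higher means stronger binding.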

Another assay concerns the target T5, 4H717-AA.
T5 chain: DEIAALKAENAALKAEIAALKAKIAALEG
In words: two-hybrid library CCmax. As to conditions: mean of both orientations.

A further assay addresses T6, 4H605-AA.
T6 chain: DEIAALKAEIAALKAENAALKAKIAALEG
Nature of the assay: two-hybrid library CCmax.

Another assay addresses T7, 4H906-AA.
T7 chain: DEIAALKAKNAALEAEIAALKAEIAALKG
Nature of the assay: two-hybrid library CCmax.

The target in the next assay is T8, 4H794-AA.
T8 chain: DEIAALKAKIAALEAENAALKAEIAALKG
In words: two-hybrid library CCmax.

Another assay has as its target T9, 4H881-AA.
T9 chain: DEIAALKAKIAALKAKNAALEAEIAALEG
Nature of the assay: two-hybrid library CCmax.

The target of the next assay is T10, 4H993-AA.
T10 chain: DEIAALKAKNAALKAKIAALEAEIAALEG
Nature of the assay: two-hybrid library CCmax.

Another assay addresses T11, 4H678-AA.
T11 chain: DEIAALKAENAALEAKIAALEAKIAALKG
In words: two-hybrid library CCmax.

The target of a further assay is T12, 4H566-AA.
T12 chain: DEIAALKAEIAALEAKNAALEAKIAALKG
Nature of the assay: two-hybrid library CCmax.

The next assay concerns the target T13, 4H967-bN.
T13 chain: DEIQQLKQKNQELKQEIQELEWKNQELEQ
Nature of the assay: two-hybrid library CCNG1.

A further assay deals with T14, 4H570-AA.
T14 chain: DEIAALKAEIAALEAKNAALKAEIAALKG
In words: two-hybrid library CCmax.

A further assay deals with T15, 4H710-AA.
T15 chain: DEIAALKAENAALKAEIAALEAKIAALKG
Nature of the assay: two-hybrid library CCmax.

The target of a further assay is T16, 4H629-AA.
T16 chain: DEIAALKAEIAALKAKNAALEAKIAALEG
In words: two-hybrid library CCmax.

The next assay has as its target T17, 4H891-AA.
T17 chain: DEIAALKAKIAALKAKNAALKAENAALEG
In words: two-hybrid library CCmax.

The target in another assay is T18, 4H797-AA.
T18 chain: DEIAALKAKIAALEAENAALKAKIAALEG
Nature of the assay: two-hybrid library CCmax. As to conditions: mean of both orientations.

In the next assay the target is T19, 4H745-AA.
T19 chain: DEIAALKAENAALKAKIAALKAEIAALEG
Nature of the assay: two-hybrid library CCmax. As to conditions: mean of both orientations.

Another assay addresses T20, 4H850-AA.
T20 chain: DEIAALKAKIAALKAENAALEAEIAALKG
In words: two-hybrid library CCmax.

The target of a further assay is T21, 4H536-AA.
T21 chain: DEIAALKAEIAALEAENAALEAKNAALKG
In words: two-hybrid library CCmax.

The target of the next assay is T22, 4H429-AA.
T22 chain: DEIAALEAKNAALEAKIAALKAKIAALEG
In words: two-hybrid library CCmax.

The target in the next assay is T23, 4H48-AA.
T23 chain: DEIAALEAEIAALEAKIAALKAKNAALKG
Nature of the assay: two-hybrid library CCmax. Conditions: mean of both orientations.

A further assay addresses T24, 4H454-AA.
T24 chain: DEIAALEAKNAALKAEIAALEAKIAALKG
Nature of the assay: two-hybrid library CCmax. As to conditions: mean of both orientations.

A further assay deals with T25, 4H63-AA.
T25 chain: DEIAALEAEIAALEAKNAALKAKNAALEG
In words: two-hybrid library CCmax.

B1: 4H909-AA (peptide)
chain: DEIAALKAKNAALEAEIAALKAKIAALEG
As for B1, the interaction score with 4H930-AA (mean of both orientations) was -1.17; with 4H909-AA, 2.08; in the assay with 4H94-AA (mean of both orientations), -0.983.

B2: 4H605-AA (peptide)
chain: DEIAALKAEIAALKAENAALKAKIAALEG
Consider B2, for which the interaction score with 4H780-AA (mean of both orientations) was -1.53; in the assay with 4H717-AA it was -1.23; with 4H605-AA, 1.29; with 4H906-AA (mean of both orientations) it was -1.14; with 4H794-AA (mean of both orientations), -0.923; with 4H881-AA (mean of both orientations), -0.443. The interaction score with 4H993-AA (mean of both orientations) was -1.15; with 4H678-AA (mean of both orientations), -0.274.

B3: 4H794-AA (peptide)
chain: DEIAALKAKIAALEAENAALKAEIAALKG
In the case of B3, the interaction score is -1.42 with 4H906-AA (mean of both orientations), 1.84 with 4H794-AA, -0.532 with 4H881-AA (mean of both orientations) and -1.99 in the assay with 4H993-AA (mean of both orientations).

B4: 4H566-AA (peptide)
chain: DEIAALKAEIAALEAKNAALEAKIAALKG
For the molecule B4, the interaction score was -2 in the assay with 4H780-AA (mean of both orientations); -0.483 with 4H717-AA; -0.184 in the assay with 4H605-AA (mean of both orientations); 2.14 in the assay with 4H566-AA; -1.33 with 4H906-AA (mean of both orientations); -0.409 in the assay with 4H794-AA (mean of both orientations). Moreover, the interaction score in the assay with 4H881-AA (mean of both orientations) is 1.95; in the assay with 4H993-AA (mean of both orientations), 1.6; with 4H678-AA (mean of both orientations), -0.948.

B5: 4H780-AA (peptide)
chain: DEIAALKAKIAALEAEIAALKAENAALKG
Take B5: the interaction score is 1.68 in the assay with 4H780-AA; -1.19 with 4H906-AA (mean of both orientations); -1.57 with 4H794-AA (mean of both orientations); -1.27 with 4H881-AA (mean of both orientations); -1.51 in the assay with 4H993-AA (mean of both orientations).

B6: 4H881-AA (peptide)
chain: DEIAALKAKIAALKAKNAALEAEIAALEG
With B6, the interaction score is -1.49 with 4H906-AA (mean of both orientations), -0.685 with 4H881-AA and 1.82 with 4H993-AA (mean of both orientations).

B7: 4H967-bN (peptide)
chain: DEIQQLKQKNQELKQEIQELEWKNQELEQ
In turn, B7 showed an interaction score with 4H967-bN of -0.749.

B8: 4H94-AA (peptide)
chain: DEIAALEAEIAALKAENAALKAKIAALKG
Consider B8, for which the interaction score in the assay with 4H94-AA was 2.24.

B9: 4H570-AA (peptide)
chain: DEIAALKAEIAALEAKNAALKAEIAALKG
Take B9: the interaction score in the assay with 4H570-AA was 1.51; with 4H930-AA (mean of both orientations), -1.1; with 4H710-AA (mean of both orientations) it was -1.47; with 4H629-AA (mean of both orientations), -0.598; with 4H909-AA (mean of both orientations) it was -1.22; with 4H891-AA (mean of both orientations) it was -0.736. The interaction score with 4H94-AA (mean of both orientations) was 1.71; in the assay with 4H797-AA, 0.178; in the assay with 4H745-AA it was -1.48; with 4H850-AA (mean of both orientations) it was 1.66.

B10: 4H993-AA (peptide)
chain: DEIAALKAKNAALKAKIAALEAEIAALEG
For the molecule B10, the interaction score in the assay with 4H993-AA is 1.19.

B11: 4H930-AA (peptide)
chain: DEIAALKAKNAALEAKIAALEAEIAALKG
As for B11, the interaction score in the assay with 4H930-AA is 1.74; with 4H94-AA (mean of both orientations), -1.34.

B12: 4H891-AA (peptide)
chain: DEIAALKAKIAALKAKNAALKAENAALEG
As for B12, the interaction score with 4H930-AA (mean of both orientations) was -1.86; with 4H909-AA (mean of both orientations), -1.73; in the assay with 4H891-AA it was -1.96; in the assay with 4H94-AA (mean of both orientations), -0.169.

B13: 4H536-AA (peptide)
chain: DEIAALKAEIAALEAENAALEAKNAALKG
For the molecule B13, the interaction score with 4H570-AA (mean of both orientations) was 1.1; with 4H930-AA (mean of both orientations) it was -1.56; with 4H710-AA (mean of both orientations) it was -1.44; with 4H629-AA (mean of both orientations) it was 0.302; with 4H909-AA (mean of both orientations), -1.61; with 4H536-AA, 0.339. The interaction score with 4H891-AA (mean of both orientations) is 1.78; in the assay with 4H94-AA (mean of both orientations), -0.957; with 4H797-AA, -0.504; with 4H745-AA, -1.07; in the assay with 4H850-AA (mean of both orientations), 1.35.

B14: 4H710-AA (peptide)
chain: DEIAALKAENAALKAEIAALEAKIAALKG
Take B14: the interaction score with 4H930-AA (mean of both orientations) is -0.472; with 4H710-AA, 0.809; in the assay with 4H909-AA (mean of both orientations), -0.464; with 4H891-AA (mean of both orientations) it was -1.65; with 4H94-AA (mean of both orientations), -0.285; with 4H797-AA, -1.31. The interaction score with 4H745-AA is 1.86; with 4H850-AA (mean of both orientations), -1.15.

B15: 4H429-AA (peptide)
chain: DEIAALEAKNAALEAKIAALKAKIAALEG
On to B15, for which the interaction score with 4H429-AA was 0.468; with 4H780-AA (mean of both orientations) it was -1.7; with 4H717-AA, -0.775; in the assay with 4H605-AA, -1.54; with 4H566-AA (mean of both orientations), 0.0626; with 4H906-AA (mean of both orientations) it was -0.239. Also, the interaction score is -0.728 in the assay with 4H48-AA; -0.809 with 4H794-AA (mean of both orientations); -0.143 with 4H881-AA (mean of both orientations); 1.83 with 4H454-AA; 1.92 with 4H993-AA; 1.26 with 4H678-AA (mean of both orientations).

B16: 4H63-AA (peptide)
chain: DEIAALEAEIAALEAKNAALKAKNAALEG
In turn, B16 came in with an interaction score in the assay with 4H63-AA of -1.93.

B17: 4H906-AA (peptide)
chain: DEIAALKAKNAALEAEIAALKAEIAALKG
For the molecule B17, the interaction score in the assay with 4H906-AA is 1.74; with 4H993-AA (mean of both orientations), -0.00106.

B18: 4H629-AA (peptide)
chain: DEIAALKAEIAALKAKNAALEAKIAALEG
Regarding B18, the interaction score is -1.41 with 4H930-AA (mean of both orientations); -0.399 with 4H710-AA (mean of both orientations); 1.86 with 4H629-AA; -1.56 in the assay with 4H909-AA (mean of both orientations); -1.48 with 4H891-AA (mean of both orientations); -0.298 with 4H94-AA (mean of both orientations). Moreover, the interaction score with 4H797-AA is -1.05; in the assay with 4H745-AA, -1.44; with 4H850-AA (mean of both orientations), -0.0456.

B19: 4H745-AA (peptide)
chain: DEIAALKAENAALKAKIAALKAEIAALEG
As to B19, the interaction score with 4H930-AA (mean of both orientations) was -0.807; with 4H909-AA (mean of both orientations) it was -0.361; with 4H891-AA (mean of both orientations) it was -1.51; with 4H94-AA (mean of both orientations), -1.46; with 4H797-AA, -1.44; with 4H850-AA (mean of both orientations), -0.847.

B20: 4H850-AA (peptide)
chain: DEIAALKAKIAALKAENAALEAEIAALKG
As to B20, the interaction score in the assay with 4H930-AA (mean of both orientations) is -1.9; with 4H909-AA (mean of both orientations) it was -1.47; in the assay with 4H891-AA (mean of both orientations), -0.0612; with 4H94-AA (mean of both orientations), 1.79; with 4H850-AA it was 1.89.

B21: 4H678-AA (peptide)
chain: DEIAALKAENAALEAKIAALEAKIAALKG
Take B21: the interaction score in the assay with 4H780-AA (mean of both orientations) is -1.59; with 4H717-AA it was -0.0211; with 4H906-AA (mean of both orientations), -0.716; with 4H794-AA (mean of both orientations), -1.91; with 4H881-AA (mean of both orientations), 1.21; with 4H993-AA (mean of both orientations), 1.05. In addition, in the assay with 4H678-AA, the interaction score is 1.57.
